First the molecules themselves.
B1: I-2510 (peptide)
peptide: Ac-[αAllylPro]D[tBuAla][B6]D[Phe(3-COOH)]QAFL[PyrS1][Phe(2-CF3)][Bta]A-NH2
modifications: staple 1-4, 4-11
B2: I-2517 (peptide)
peptide: Ac-[αAllylPro]D[tBuAla][B6]D[Phe(3-COOH)]QAFL[PyrS2][Phe(2-CF3)][Bta]A-NH2
modifications: staple 1-4, 4-11
B3: I-2516 (peptide)
peptide: Ac-[αAllylPro]D[tBuAla][B6]D[Phe(3-COOH)]QAFL[PyrS2][Phe(2-CF3)][Bta]A-NH2
modifications: staple 1-4, 4-11; also: one of three HPLC isomer compositions
B4: I-2231 (peptide)
peptide: Ac-[αMeP]D[tBuAla][Aib]DDAAFQ[Aib][3Thi][Bta]HK-NH2
SMILES: CC(=O)N1CCC[C@@]1(C)C(=O)N[C@@H](CC(=O)O)C(=O)N[C@@H](CC(C)(C)C)C(=O)NC(C)(C)C(=O)N[C@@H](CC(=O)O)C(=O)N[C@@H](CC(=O)O)C(=O)N[C@@H](C)C(=O)N[C@@H](C)C(=O)N[C@@H](Cc1ccccc1)C(=O)N[C@@H](CCC(N)=O)C(=O)NC(C)(C)C(=O)N[C@@H](Cc1ccsc1)C(=O)N[C@@H](Cc1csc2ccccc12)C(=O)N[C@@H](Cc1c[nH]cn1)C(=O)N[C@@H](CCCCN)C(N)=O
B5: I-2520 (peptide)
peptide: Ac-[αAllylPro]D[tBuAla][B5(4)]DXQAFL[PyrS2][Phe(2-CF3)][Bta]A-NH2
modifications: staple 1-4, 4-11; not fully specified (residue 6); printed as Ac-PL3-Asp-Npg-B5-Asp-[CH2CChCO2H]TriAzDap-Gln-Ala-Phe-Leu-PyrS2-2F3MeF-BztA-Ala-NH2
B6: I-2519 (peptide)
peptide: Ac-[αAllylPro]D[tBuAla][B6]D[Phe(3-COOH)]QAFL[PyrS1][Phe(2-CF3)][Bta]A-NH2
modifications: staple 1-4, 4-11; not fully specified; printed as Ac-PL3-Asp-Npg-B6-Asp-3COOHF-Gln-Ala-Phe-Leu-PyrS1-2F3MeF-BztA-Ala-NH2
B7: I-2230 (peptide)
peptide: Ac-[αAllylPro]D[tBuAla][B5(3)]DDAAFQ[PyrS2″][3Thi][Bta]HK-NH2
modifications: staple 1-4, 4-11; also: later eluting staple isomer
B8: I-2229 (peptide)
peptide: Ac-[αAllylPro]D[tBuAla][B5(3)]DDAAFQ[PyrS2″][3Thi][Bta]HK-NH2
modifications: staple 1-4, 4-11; also: earlier eluting staple isomer
B9: I-2522 (peptide)
peptide: Ac-[αAllylPro]N[Cha][B5(4)]DQK(Ac)AFL[PyrS2]F[Bta][MorphAsn]-NH2
modifications: staple 1-4, 4-11
B10: I-2515 (peptide)
peptide: Ac-[αAllylPro]D[tBuAla][B6]D[Phe(3-COOH)]QAFL[PyrS2][Phe(2-CF3)][Bta]A-NH2
modifications: staple 1-4, 4-11
B11: I-2523 (peptide)
peptide: Ac-[αAllylPro]N[Cha][B5(4)]DQKAFL[PyrS2]F[Bta][MorphAsn]-NH2
modifications: staple 1-4, 4-11; not fully specified (residue 7); printed as Ac-PL3-Asn-Cha-B5-Asp-Gln-[Phc]Lys-Ala-Phe-Leu-PyrS2-Phe-BztA-MorphAsn-NH2

Starred links: 1 amine or outer side, 2 acyl side, 3 side chain; linkers in the order of their positions; H or OH if unused. Positions of bridges follow the written chain, without caps; N, C: chain ends. Non-standard residues stand in square brackets, D forms with d. Primed or numbered codes have the meaning given here. PyrS2″ = (S)-3-amino-1-((pent-4-en-1-yloxy)carbonyl)pyrrolidine-3-carboxylic acid (stapling residue), C=CCCCOC(=O)N1CC[C@@](N[*:1])(C(=O)[*:2])C1; B5(4) = 2,2-bis(4-pentenyl)glycine = 2-amino-2-(pent-4-en-1-yl)hept-6-enoic acid (stitching residue), C=CCCCC(CCCC=C)(N[*:1])C(=O)[*:2]; PyrS2 = (S)-3-amino-1-((pent-4-en-1-yloxy)carbonyl)pyrrolidine-3-carboxylic acid, C=CCCCOC(=O)N1CC[C@@](N[*:1])(C(=O)[*:2])C1; PyrS1 = (S)-3-amino-1-((but-3-en-1-yloxy)carbonyl)pyrrolidine-3-carboxylic acid, C=CCCOC(=O)N1CC[C@@](N[*:1])(C(=O)[*:2])C1; MorphAsn = (S)-2-amino-4-morpholino-4-oxobutanoic acid, O=C(C[C@H](N[*:1])C(=O)[*:2])N1CCOCC1; B5(3) = 2,2-bis(4-pentenyl)glycine (stitching residue), C=CCCCC(CCCC=C)(N[*:1])C(=O)[*:2]; B6 = 2-amino-2-(hex-5-en-1-yl)oct-7-enoic acid, C=CCCCCC(CCCCC=C)(N[*:1])C(=O)[*:2]; Phe(3-COOH) = N[C@@H](Cc1cccc(C(=O)O)c1)C(=O)O; Phe(2-CF3) = N[C@@H](Cc1ccccc1C(F)(F)F)C(=O)O; Bta = N[C@@H](Cc1csc2ccccc12)C(=O)O; αAllylPro = C=CC[C@@]1(C(=O)O)CCCN1; tBuAla = CC(C)(C)C[C@H](N)C(=O)O; 3Thi = N[C@@H](Cc1ccsc1)C(=O)O; Cha = N[C@@H](CC1CCCCC1)C(=O)O; αMeP = C[C@@]1(C(=O)O)CCCN1; Aib = CC(C)(N)C(=O)O

Chain of full-length beta-Catenin (Uniprot ID P35222) (Homo sapiens (Human)) (P35222 whole entry): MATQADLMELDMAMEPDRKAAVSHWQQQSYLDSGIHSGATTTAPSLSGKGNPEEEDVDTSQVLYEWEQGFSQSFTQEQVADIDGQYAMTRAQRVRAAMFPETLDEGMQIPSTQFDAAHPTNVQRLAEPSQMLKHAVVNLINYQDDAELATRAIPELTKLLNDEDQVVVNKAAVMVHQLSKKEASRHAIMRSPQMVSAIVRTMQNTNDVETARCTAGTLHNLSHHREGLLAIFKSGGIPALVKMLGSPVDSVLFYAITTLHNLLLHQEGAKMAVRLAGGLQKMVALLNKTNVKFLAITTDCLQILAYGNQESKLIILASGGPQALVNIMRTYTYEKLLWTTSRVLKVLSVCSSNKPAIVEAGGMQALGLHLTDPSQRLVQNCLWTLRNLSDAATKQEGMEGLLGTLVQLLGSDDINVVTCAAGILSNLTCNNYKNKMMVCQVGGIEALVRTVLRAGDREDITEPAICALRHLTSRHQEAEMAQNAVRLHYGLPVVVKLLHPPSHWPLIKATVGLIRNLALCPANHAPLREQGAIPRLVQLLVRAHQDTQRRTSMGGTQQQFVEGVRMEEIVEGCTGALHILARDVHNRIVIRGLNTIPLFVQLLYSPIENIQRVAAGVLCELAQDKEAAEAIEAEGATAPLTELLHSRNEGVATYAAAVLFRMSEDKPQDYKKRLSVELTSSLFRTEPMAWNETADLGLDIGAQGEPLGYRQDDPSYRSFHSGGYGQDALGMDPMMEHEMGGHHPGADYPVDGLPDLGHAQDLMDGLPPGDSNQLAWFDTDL

This assay has as its target full-length beta-Catenin (Uniprot ID P35222) (Homo sapiens (Human)) (UniProt P35222). The assay is described as follows: fluorescence polarization competition; peptide titrated against 10 nM full-length beta-catenin + 10 nM 5FAM-TCF4(10-53). On the technique in general: Polarisation of emitted light reports the rotation of a fluorescent probe.
Consider B1, for which the IC50 (in general, the concentration that inhibits the measured activity by half) was 24 nM.
Turning to B2, the IC50 was determined as 61 nM.
Then B3, with 209 nM.
Then B4, with 5190 nM; and B5, with 27 nM; and B6, with 94 nM.
Then B7, with 8 nM; and B8, with 6 nM; and B9, with 219 nM.
With B10, the IC50 came to 1610 nM.
With B11, the IC50 came out at 1730 nM.
